This is an account of results in paper PMC11263391, “Molecular insights into degron recognition by CRL5^ASB7 ubiquitin ligase” (Nature Communications, 2024).

Test [1] has as its target ASB7-Elongin B-Elongin C ternary complex (wild-type ASB7, residues 11-318) (human) (UniProt Q9H672). As to the kind of experiment: ITC; peptide in the syringe titrated into ASB7-Elongin B/C in the cell; MicroCal PEAQ-ITC, 16 °C, 20 mM Tris-HCl pH 7.5, 150 mM NaCl; 39–156 μM protein, 0.8–4 mM peptide; repeated three times, mean ± SD. On the technique in general: ITC needs no label: the signal is the heat of the interaction.

For test [2], the target named is ASB7 Arg185-to-alanine mutant in complex with Elongin B/C (human) (UniProt Q9H672). The test can be described thus: ITC; peptide (0.8–4 mM) titrated into the ASB7 complex (39–156 µM); 16 °C; 20 mM Tris-HCl pH 7.5, 150 mM NaCl; MicroCal PEAQ-ITC.
Test [3] has as its target ASB7 with Trp118 in ANK3 or Phe82 in ANK4 replaced with alanine. Described as above.
In test [4] the target is ASB7 Phe182 alanine mutant in complex with Elongin B/C (human) (UniProt Q9H672). The test is described as above.
Test [5] has as its target ASB7 D116A mutant in complex with Elongin B/C (human) (UniProt Q9H672). Described as above.
Test [6] concerns the target ASB7 R160A mutant in complex with Elongin B/C (human) (UniProt Q9H672). The test is described as above.

As a reminder, the Kd is the free concentration of one partner at which half of the binding sites on the other are occupied at equilibrium, for simple one-to-one binding. Higher therefore signals a looser complex. The term stoichiometry N denotes a count of units in the complex or per binding partner. For the substance LZTS1 degron peptide, 22 residues (…), in test [1], the Kd amounted to 0.6 µM and the stoichiometry N was determined as 0.75.

Consider LZTS1-degron 23-residue peptide, for which the fold decrease in binding affinity against wild-type ASB7 is 4 fold in test [2], 10 to 30 fold in test [3], 3 fold in test [4] and 3 fold in test [6]. Further, the fold reduction in binding against wild-type ASB7 in test [5] came to 7 fold.
